The results in this text go back to publication PMC8667318.

This experiment concerns the target Recombinant human MCHR1 Protein (human) (UniProt Q99705). The experiment in a line: SPR; Biacore T200, CM5 chip, 25°C; MCHR1 immobilised by amine coupling (~5500 RU); PDGF-BB as analyte 100 nM to 3.125 nM; PBS-P (20 mM phosphate pH 7.4, 137 mM NaCl, 2.7 mM KCl, 0.05% P20); 1:1 kinetics model fitting. A general note: SPR reads the build-up and loss of mass on a sensor chip optically.
UniProt Q99705, sequence (Q99705 whole entry): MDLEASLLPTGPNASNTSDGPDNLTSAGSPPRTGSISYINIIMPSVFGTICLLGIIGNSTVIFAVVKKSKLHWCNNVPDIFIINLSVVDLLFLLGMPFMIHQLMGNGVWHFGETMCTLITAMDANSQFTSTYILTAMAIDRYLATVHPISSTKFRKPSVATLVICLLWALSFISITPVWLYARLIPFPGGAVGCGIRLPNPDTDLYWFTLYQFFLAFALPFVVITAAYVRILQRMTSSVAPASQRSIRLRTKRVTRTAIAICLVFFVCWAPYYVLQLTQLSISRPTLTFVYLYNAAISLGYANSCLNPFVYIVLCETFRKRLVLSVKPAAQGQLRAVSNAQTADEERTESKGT

The term Kd denotes a measure of binding affinity in units of concentration. Turning to “Recombinant human PDGF-BB (from UniProt P01127 82-190) (ligand)”, the Kd was determined as 0.0466 µM.
